This data set in a line: self-splicing fitness, log relative to wild type (ln ratio); higher = more splicing; Tetrahymena group I intron in knt gene, E. coli kanamycin selection, DiMSum; sequences stand for … in CUCUCU…GGAGGGAAAAGUUAUCAGGCAUGCACCUGGUAGCUAGUCUUUAAACCAAUAGAUUGCAUCGGUUUAAAAGGCAAGACCGUCAAAUUGCGGGAAAGGGGUCAACAGCCGUUCAGUACCAAGUCUCAGGGGAAACUUUGAGAUGGCCUUGCAAAGGGUAUGGUAAUAAGCUGACGGACAUGGUCCUAACCACGCAGCCAAGUCCUAAGUCAACAGAUCUUCUGUUGAUAUGGAUGCAGUUCACAGACUAAAUGUCGGUCGGGGAAGAUGUAUUCUUCUCAUAAGAUAUAGUCGGACCUCUCCUUAAUGGGAGCUAGCGGAUGAAGUGAUGCAACACUGGAGCCGCUGGGAACUAAUUUGUAUGCGAAAGUAUAUUGAUUAGUUUUGGAGUACUCGUGGUCG
Put shortly: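 The eight P1ex-region nucleotides of an intron in the knt kanamycin-resistance gene on pET-22b(+) were all randomised and the library put into E. coli BL21(DE3). Six replicate transformations were grown overnight at 37°C or 30°C on LB agar with or without 25 μg/mL kanamycin, together with 100 μg/mL carbenicillin, 50 μM IPTG and 0.2% rhamnose. Colonies were pooled and amplicon-sequenced on an Illumina HiSeq 2500. Fitness from DiMSum is the error-weighted combination of wild-type-normalised replicate fold changes, kanamycin over none.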

± gives the uncertainty stated by the source.

For ACGUAGCAAUAUUACGCGUC, the “self-splicing fitness (ln)” value was -1.53 ± 0.22 (30 °C) and -1.97 ± 0.35 (37 °C). As to ACGUAGCAAUAUUACGGGAG, the “self-splicing fitness (ln)” value is -3.63 ± 0.17 (30 °C) and -2.28 ± 0.17 (37 °C). For ACGUAGCAAUAUUACGGGGU the same measures were -4.31 ± 0.3 and -2.51 ± 0.18. For ACGUAGCAAUAUUACGGUCA the same measures were -0.681 ± 0.16 and 0.577 ± 0.17. Take ACGUAGCAAUAUUACGUAGA: the “self-splicing fitness (ln)” value is -3.58 ± 0.42 (30 °C) and -2.86 ± 0.41 (37 °C).

As for ACGUAGCAAUAUUACGUCAC, where the note is “37 °C”, the “self-splicing fitness (ln)” value was -1.67 ± 0.4. For ACGUAGCAAUAUUACGUCUA, the “self-splicing fitness (ln)” value is, setting by setting: (30 °C) -0.802 ± 0.27; (37 °C) -1.22 ± 0.18.

Turning to ACGUAGCAAUAUUACGUGUU, the “self-splicing fitness (ln)” value was -3.73 ± 0.13 (30 °C) and -2.37 ± 0.13 (37 °C).

ACGUAGCAAUAUUACGUUGC: the “self-splicing fitness (ln)” value (30 °C) is -3.35 ± 0.24 and the “self-splicing fitness (ln)” value (37 °C) was -1.68 ± 0.22. The like results for ACUAAGCAAUAUUACGAAAU were, in that order, -2.67 ± 0.16 and -1.22 ± 0.17. As to ACUAAGCAAUAUUACGAACU, the “self-splicing fitness (ln)” value reads like this: (30 °C) -0.447 ± 0.083; (37 °C) 0.532 ± 0.1.

Take ACUAAGCAAUAUUACGACAA: the “self-splicing fitness (ln)” value is -1.63 ± 0.079 (30 °C) and -0.52 ± 0.1 (37 °C). For ACUAAGCAAUAUUACGAGAC the same measures were -2.89 ± 0.28 and -3.24 ± 0.35.

In the case of ACUAAGCAAUAUUACGAGAG, the “self-splicing fitness (ln)” value was -3.17 ± 0.13 (30 °C) and -2.52 ± 0.15 (37 °C).

On to ACUAAGCAAUAUUACGAGUC, for which the “self-splicing fitness (ln)” value was -3.83 ± 0.42 (30 °C) and -2.73 ± 0.2 (37 °C). For ACUAAGCAAUAUUACGAUAC the same measures were -2.39 ± 0.21 and -1.29 ± 0.22. The like results for ACUAAGCAAUAUUACGAUCG were, in that order, -0.981 ± 0.15 and 0.89 ± 0.18. For ACUAAGCAAUAUUACGCCAC, the “self-splicing fitness (ln)” value (30 °C) was -2.45 ± 0.38. Take ACUAAGCAAUAUUACGCGCA: the “self-splicing fitness (ln)” value is -0.252 ± 0.067 (30 °C) and -0.518 ± 0.085 (37 °C). Consider ACUAAGCAAUAUUACGCGCC, for which the “self-splicing fitness (ln)” value was 0.0442 ± 0.11 (30 °C) and -0.687 ± 0.14 (37 °C). For ACUAAGCAAUAUUACGCUAA the same measures were -3.83 ± 0.43 and -1.92 ± 0.38. Take ACUAAGCAAUAUUACGCUCU: the “self-splicing fitness (ln)” value by setting is: (30 °C) -0.0344 ± 0.097; (37 °C) -0.566 ± 0.1. As for ACUAAGCAAUAUUACGCUUU, the “self-splicing fitness (ln)” value was -2.34 ± 0.17 (30 °C) and -1.97 ± 0.18 (37 °C). For ACUAAGCAAUAUUACGGACU the same measures were 0.14 ± 0.054 and 0.436 ± 0.076.

On to ACUAAGCAAUAUUACGGGAG, for which the “self-splicing fitness (ln)” value runs as follows: (30 °C) -2.5 ± 0.11; (37 °C) -1.88 ± 0.14. ACUAAGCAAUAUUACGGGCU: the “self-splicing fitness (ln)” value (30 °C) was -0.833 ± 0.089 and the “self-splicing fitness (ln)” value (37 °C) is -0.736 ± 0.083. Regarding ACUAAGCAAUAUUACGGGGG, the “self-splicing fitness (ln)” value (30 °C) was -3.59 ± 0.29 and the “self-splicing fitness (ln)” value (37 °C) was -1.26 ± 0.17. For ACUAAGCAAUAUUACGGUAG the same measures were -4.09 ± 0.2 and -3.56 ± 0.2.

Take ACUAAGCAAUAUUACGGUUA: the “self-splicing fitness (ln)” value was -2.02 ± 0.1 (30 °C) and -1.06 ± 0.086 (37 °C). For ACUAAGCAAUAUUACGUAGC the same measures were -2.96 ± 0.16 and -1.25 ± 0.13. Take ACUAAGCAAUAUUACGUGCA: the “self-splicing fitness (ln)” value reads like this: (30 °C) -1.37 ± 0.073; (37 °C) -0.431 ± 0.11. Regarding ACUAAGCAAUAUUACGUUCA, the “self-splicing fitness (ln)” value is -1.29 ± 0.1 (30 °C) and -0.98 ± 0.098 (37 °C). The like results for ACUAAGCAAUAUUACGUUCC were, in that order, -2.41 ± 0.23 and -1.2 ± 0.29. The like results for ACUCAGCAAUAUUACGAAAU were, in that order, -1.11 ± 0.091 and 0.0403 ± 0.099.

(Values after the supplement of paper PMC7877785.)
